Data taken from patent publication EP4793288A1 (Imbiologics Corp., dated 2025).

Legend:
[1] = molecular target: B2M (UniProt P61769 21-119); test: ELISA
[2] = molecular target: T1, HLA-G expressed on the cell surface (human, UniProt P17693 25-338); test: flow cytometry on JEG-3 and SCH cells naturally expressing HLA-G, anti-human IgG PE
T1 construct: whole, on cells; The cell line of each entry is named under assay or readout; also called HLA-G on JEG-3 cells; HLA-G on SCH cells

[3] = molecular target: T1, HLA-G expressed on the cell surface; test: cell-based or functional assay

B2M, sequence (P61769 21-119 limits assumed): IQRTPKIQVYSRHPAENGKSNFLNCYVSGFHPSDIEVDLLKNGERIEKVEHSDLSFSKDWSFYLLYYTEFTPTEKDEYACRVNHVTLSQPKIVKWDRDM

B1: 2F1HS6LS#38 (antibody, V domains shown)
VH: EVQLVESGGGLVQPGGSLRLSCAASGFTFSDYAMSWVRQAPGKGLEWVSRISQSGSYTYYADSVKGRFTISRDNSKNTLYLQMNSLRAEDTAVYYCAKEGTSSYRGWMDVWGQGTLVTVSS
VL: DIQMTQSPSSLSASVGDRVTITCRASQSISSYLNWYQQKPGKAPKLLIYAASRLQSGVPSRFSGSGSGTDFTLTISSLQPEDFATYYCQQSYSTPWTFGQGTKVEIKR
- binding result [1]: no binding
- fold HLA-G binding activity against the positive control antibody [2]: ≥ 3 fold
- EC50 (nM), ADCC reporter assay on SKOV-3/HLA-G cells [3]: 0.93 nM
